Consider one protein from article doi:10.1101/2020.07.03.182295 (bioRxiv, 2020).

The data set concerns the molecule itself. Nature of the data set: SEC.

B1: R54C αA-crystallin (recombinant human) (natural protein)
chain: MDVTIQHPWFKRTLGPFYPSRLFDQFFGEGLFEYDLLPFLSSTISPYYRQSLFCTVLDSGISEVRSDRDKFVIFLDVKHFSPEDLTVKVQDDFVEIHGKHNERQDDHGYISREFHRRYRLPSNVDQSALSCSLSADGMLTFCGPKIQTGLDATHAERAIPVSREEKPTSAPSS
For the protein B1, the binding result was “binds”.
